Experimental findings from publication PMC3730723, “A Network of HMG-box Transcription Factors Regulates Sexual Cycle in the Fungus Podospora anserina” are described below.

The target of this data set is T1, PaHMG5 (HMG5His) (Podospora anserina, UniProt B2AM17 1-559).
T1 sequence: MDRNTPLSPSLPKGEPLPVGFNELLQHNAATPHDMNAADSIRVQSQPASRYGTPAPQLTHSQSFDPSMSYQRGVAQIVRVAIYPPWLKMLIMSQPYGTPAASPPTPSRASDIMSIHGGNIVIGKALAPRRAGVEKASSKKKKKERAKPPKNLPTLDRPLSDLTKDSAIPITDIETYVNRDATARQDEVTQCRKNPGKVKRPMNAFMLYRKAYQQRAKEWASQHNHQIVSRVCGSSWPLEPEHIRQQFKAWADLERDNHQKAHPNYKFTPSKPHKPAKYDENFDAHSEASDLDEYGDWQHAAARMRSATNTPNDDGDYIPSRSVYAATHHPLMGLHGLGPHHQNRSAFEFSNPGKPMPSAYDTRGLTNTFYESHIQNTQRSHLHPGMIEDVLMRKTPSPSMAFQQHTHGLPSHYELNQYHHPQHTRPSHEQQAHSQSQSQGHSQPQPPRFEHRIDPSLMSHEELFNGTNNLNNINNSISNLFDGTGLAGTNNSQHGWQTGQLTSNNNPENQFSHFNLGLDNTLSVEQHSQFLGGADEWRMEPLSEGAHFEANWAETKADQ
Nature of the data set: EMSA; 20 mM Tris pH 9.0, 500 mM NaCl, 5 mM beta-mercaptoethanol, 5 mM MgCl2, 5% glycerol, 1.25 ug poly(dI-dC), 11 ul, on ice; 6% gel in 0.25x TBE. Conditions: protein: recombinant; tags: C-terminal His6; label: 5'-32P; 33 bp duplex, 1 nt 5' G overhang on each strand.

B1: FMR1 probe (dsDNA)
DNA 1: GTGCAGGATAGCCAACAAAGAAATGACTGCCACG
DNA 2: GCGTGGCAGTCATTTCTTTGTTGGCTATCCTGCA
As for B1, the binding result is recorded as “binds”.

B2: PaHMG8 probe (dsDNA)
DNA 1: GTGCAAACGCGGGGACAAAGAAAAAGTCTGGTGC
DNA 2: GGCACCAGACTTTTTCTTTGTCCCCGCGTTTGCA
As for B2, the binding result was “binds”.

B3: mtHMG1 probe (dsDNA)
DNA 1: GGAGGGCATCTTCAACAAAGAATCTCGGCAAATA
DNA 2: GTATTTGCCGAGATTCTTTGTTGAAGATGCCCTC
For B3, the binding result is recorded as “binds”.

B4: PaHMG5 probe (dsDNA)
DNA 1: GTAGAGAAGCCGGAACAAAGAAAGGAACAAGCAG
DNA 2: GCTGCTTGTTCCTTTCTTTGTTCCGGCTTCTCTA
As for B4, the binding result is reported as “binds”.

B5: KEF1 (PaHMG9) probe (dsDNA)
DNA 1: GATCGTAGCTATAGACAAAGAAAGCAACAGATAG
DNA 2: GCTATCTGTTGCTTTCTTTGTCTATAGCTACGAT
In the case of B5, the binding result was “binds”.

B6: FPR1 probe (dsDNA)
DNA 1: GGTGAAGGTGAATAACAAAGAAATACACTGACGG
DNA 2: GCCGTCAGTGTATTTCTTTGTTATTCACCTTCAC
On to B6, for which the binding result was “binds”.
